Data from the supplement of paper PMC9732359.
± gives the uncertainty stated by the source.

Test: protein stability index of a GFP-peptide fusion (yeast GPS) (PSI 1-4); higher = more stable; sorted into four equal gates, so the index is relative within each strain
Settings: doa10∆
Procedure, shortened: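 Tiled 17-residue yeast protein peptides were fused downstream of GFP in a plasmid that also expresses Cherry, and the pooled library was carried in yeast. Mid-log cultures in leucine-free medium were sorted into four equal gates by GFP/Cherry fluorescence ratio, and plasmids from each gate were PCR-amplified and Illumina-sequenced, with reads assigned to strains by barcodes. The protein stability index for each peptide was each gate's read frequency times its gate number, summed.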

Sequence | protein stability index
LKNLLRSNFRVNLSQEA [SNU114] | 2.05 ± 0.093
LKNTKYFQQTTIDWVEA [PRP8] | 2.93 ± 0.078
LKPVDKLKPMNIERKQT [SIN4] | 2.82 ± 0.11
LKTFNGSLALLKLSMAD [POP4] | 2.33 ± 0.046
LKVRKGHIAKLMATEYQ [RPB2] | 2.52 ± 0.14
LKWIDTASKFGKGRFQT [RPL3] | 3.34 ± 0.11
LLDVKLAIDNMYILGMC [YCG1] | 1.56 ± 0.086
LLDVVKGTEASNDIIDK [YDL116W/NUP84] | 2.08 ± 0.19
LLHETNDSFKGLITNKM [PRP8] | 3 ± 0.16
LLHNHLKSIESLKLENS [SMC2] | 1.4 ± 0.1
LLIATNLKEYNKFMSIF [SRB8] | 1.64 ± 0.051
LLISDTESNELIQKLQN [IRR1] | 2.79 ± 0.076
LLKYSNETKKRNFLETV [RPL1A] | 3 ± 0.25
LLNKNTGNNLYDRNSNN [SWI1] | 2.79 ± 0.065
LLPLVVSNISCLTGTVA [ECM29] | 1.25 ± 0.041
LLQGGAKVVVTTSRFSK [FAS2] | 2.72 ± 0.077
LLSIKLPGKVNTKEEFA [SNF5] | 2.15 ± 0.17
LLSKKHGQLKLSIQYMI [RPN5] | 1.43 ± 0.046
LLTCYELEKKYHGNECE [SRB8] | 2.71 ± 0.082
LLVKFIKFFWNNTHVGR [YLR018C/POM34] | 2.97 ± 0.22
LLVVIFKKTLRSRISSP [SRB4] | 1.53 ± 0.085
LMKKACYVGLLTAIPIL [SNU114] | 1.55 ± 0.035
LMYATDWQMMTSPVTGA [CSL4] | 2.85 ± 0.15
LNAINNAEKTGKRQVLL [RPS22B] | 3.35 ± 0.066
LNFSTTAPANTTDANGS [MED2] | 2.06 ± 0.061

Sequence | protein stability index
LNIGLGAVGLKDLTLCR [YCS4] | 2.3 ± 0.079
LNLDEIVACELILSGDT [YJL039C/NUP192] | 2.64 ± 0.08
LNLNNSELQPQNRSLQE [SNF2] | 3.24 ± 0.046
LNPNEYFSVTTARRNVS [SWI3] | 1.64 ± 0.072
LNQIATLKIHLKKFLQE [IRR1] | 2.17 ± 0.18
LNQLDGFETSKNIKIIM [RPT6] | 2.39 ± 0.25
LNRIKKYLLTQRVFKPV [PRP8] | 2.22 ± 0.075
LPEQLKSGKFCSHCGCV [SNM1] | 2.79 ± 0.084
LPIYDSLMSSQNKLFYI [SIR3] | 2.15 ± 0.14
LPKIKTVRKSIACVLTV [RPL35A] | 1.98 ± 0.28
LPKVRYNVEKVKRLMDF [NSL1] | 1.8 ± 0.07
LPLNKPRLEKLINEILL [RGR1] | 2.53 ± 0.051
LPTTVVSNPGDNPPPAD [MED2] | 3.02 ± 0.046
LPTVGFDFIKDNETPSK [YOR098C/NUP1] | 3.15 ± 0.093
LPVKEFQIIDTLLPGLQ [RPS2] | 2.35 ± 0.15
LPVKHPELFESLGIAQP [RPT6] | 2.65 ± 0.074
LPVNIRRIIQNAQQTFH [RPO21] | 2 ± 0.053
LQIGDVVERHLEDGDVV [RPO31] | 3.38 ± 0.088
LQKQILTVENKLQFETD [SMC1] | 2.6 ± 0.069
LQKVENQTIKEAKDAII [YIL149C/MLP2] | 3.05 ± 0.046
LQMYSKIRRHPNIMLIF [FAS1] | 1.72 ± 0.039
LQRDLFIRLPHWPLNWY [RGR1] | 2.05 ± 0.095
LQVSEKDLFELERYYKE [ARP7] | 3.14 ± 0.085
LQWHAMIELICSSATVP [AAR2] | 1.55 ± 0.084
LQYANNAVISHANAAAV [SIN4] | 1.83 ± 0.047

Sequence | protein stability index
LRDHALSLTAFTKNEEK [ITC1] | 1.42 ± 0.042
LREAPADYWTHAYRDVL [SNF6] | 2.55 ± 0.12
LREEIFIANEGVHTGQF [RPL2A] | 2.8 ± 0.084
LREFRITHNTNITDNLF [GRR1] | 1.32 ± 0.15
LRIVTHLAICLDIINPG [YDL116W/NUP84] | 1.61 ± 0.08
LRLDGHTKSDERSELLR [SNF2] | 3.24 ± 0.081
LRLGRGINPNTFRIFHN [YDL088C/ASM4] | 2.39 ± 0.062
LRLPFSAAMSIDKLSDV [PRP8] | 2.43 ± 0.053
LRLRISRKRNEEEDAKN [RPL31A] | 1.72 ± 0.17
LRLTEQKSPKIRDPLTQ [RPC82] | 1.6 ± 0.071
LRNKIAGYTTHLMKRIQ [RPS17A] | 2.44 ± 0.12
LRSRLQQQQQQQQQTSP [SNF5] | 2.58 ± 0.057
LRTVKEVQFGLFSPEEV [RPO21] | 2.76 ± 0.082
LRVDEVQGKNLLTNFHG [RPS1A] | 3.29 ± 0.067
LRYYKNIWLNNKIINWE [NUT1] | 3.56 ± 0.18
LSDNAKTLHSQMMSKGI [RPC34] | 3.19 ± 0.18
LSDVAFYVQDVYKDNLS [RPO31] | 1.8 ± 0.12
LSGLAQRKTNGASNGDD [BRN1] | 3.15 ± 0.17
LSINEKDFVTMAIEIIN [YCG1] | 2.44 ± 0.082
LSKMRDSVLQLASFEKT [RPO31] | 3.12 ± 0.13
LSLTAVPSFLRPDITMY [GRR1] | 2.17 ± 0.043
LSNPSNQNICTSVTRRS [GRR1] | 2.42 ± 0.083
LSRLSTASKIIVIDVDY [MED1] | 2.07 ± 0.058
LSSYQKKIIKCDEHMGL [PRE5] | 2.19 ± 0.1
LSTLPAGKSLVSKSEPK [QCR2] | 2.95 ± 0.17

Sequence | protein stability index
LTADARSMIEHARTAAV [PUP2] | 2.11 ± 0.13
LTEAVEDGPRPFKVFLD [RPL5] | 3.03 ± 0.071
LTFILGQLLSVKFLVYQ [YML031W/NDC1] | 1.53 ± 0.081
LTFVSVDEELGPSIYKT [SCL1] | 2.37 ± 0.065
LTGEAEIEQPVTTFVFT [FAS1] | 3.16 ± 0.083
LTHVDLIEKFLRYNPLE [RPB10] | 2.91 ± 0.14
LTIFDSVDESARIKDAF [YJL039C/NUP192] | 3.01 ± 0.11
LTIVTCKQFPKLSCIQL [SRB8] | 1.99 ± 0.07
LTKYIRSKNLIFNGETL [GRR1] | 2.52 ± 0.086
LTNGVTEHVRQNAKLLA [RRP6] | 1.6 ± 0.041
LTVIEKLDSKKILPTDI [SRP68] | 2.71 ± 0.13
LTYLYEMKNIRGPYLVI [SNF2] | 1.22 ± 0.059
LVAKLKKVKSASKKSGG [SMC4] | 2.4 ± 0.074
LVDENTDYLYRRLHDEN [YCS4] | 2.68 ± 0.056
LVDNLNAEVVAGNIKCR [BRR2] | 1.79 ± 0.087
LVDVMTTQGGLTSVTRH [RPO21] | 2.14 ± 0.1
LVEARSLGHQTSLITAV [MTR3] | 2.69 ± 0.08
LVEPSKVGQFDQVLNLC [FAS1] | 2.35 ± 0.13
LVFCKHITSVPISAVLR [GRR1] | 1.61 ± 0.053
LVISLAATNETFENINS [IRR1] | 2.07 ± 0.11
LVLADAFDIELSEFGIK [YCS4] | 2.92 ± 0.052
LVLLELVSSGDRFIELI [YML103C/NUP188] | 2.56 ± 0.1
LVLNKSSIDRGFGRCET [RET1] | 3.03 ± 0.28

Same assay, conditions: pdr5∆

Sequence | protein stability index
LKNLLRSNFRVNLSQEA [SNU114] | 2.26 ± 0.089
